First the molecules themselves.
B1: Drosophila Smo (dSmo): N336Q (protein)
parent chain: MQYLNFPRMPNIMMFLEVAILCLWVVADASASSAKFGSTTPASAQQSDVELEPINGTLNYRLYAKKGRDDKPWFDGLDSRHIQCVRRARCYPTSNATNTCFGSKLPYELSSLDLTDFHTEKELNDKLNDYYALKHVPKCWAAIQPFLCAVFKPKCEKINGEDMVYLPSYEMCRITMEPCRILYNTTFFPKFLRCNETLFPTKCTNGARGMKFNGTGQCLSPLVPTDTSASYYPGIEGCGVRCKDPLYTDDEHRQIHKLIGWAGSICLLSNLFVVSTFFIDWKNANKYPAVIVFYINLCFLIACVGWLLQFTSGSREDIVCRKDGTLRHSEPTAGENLSCIVIFVLVYYFLTAGMVWFVFLTYAWHWRAMGHVQDRIDKKGSYFHLVAWSLPLVLTITTMAFSEVDGNSIVGICFVGYINHSMRAGLLLGPLCGVILIGGYFITRGMVMLFGLKHFANDIKSTSASNKIHLIIMRMGVCALLTLVFILVAIACHVTEFRHADEWAQSFRQFIICKISSVFEEKSSCRIENRPSVGVLQLHLLCLFSSGIVMSTWCWTPSSIETWKRYIRKKCGKEVVEEVKMPKHKVIAQTWAKRKDFEDKGRLSITLYNTHTDPVGLNFDVNDLNSSETNDISSTWAAYLPQCVKRRMALTGAATGNSSSHGPRKNSLDSEISVSVRHVSVESRRNSVDSQVSVKIAEMKTKVASRSRGKHGGSSSNRRTQRRRDYIAAATGKSSRRRESSTSVESQVIALKKTTYPNASHKVGVFAHHSSKKQHNYTSSMKRRTANAGLDPSILNEFLQKNGDFIFPFLQNQDMSSSSEEDNSRASQKIQDLNVVVKQQEISEDDHDGIKIEELPNSKQVALENFLKNIKKSNESNSNRHSRNSARSQSKKSQKRHLKNPAADLDFRKDCVKYRSNDSLSCSSEELDVALDVGSLLNSSFSGISMGKPHSRNSKTSCDVGIQANPFELVPSYGEDELQQAMRLLNAASRQRTEAANEDFGGTELQGLLGHSHRHQREPTFMSESDKLKMLLLPSK
B2: Drosophila Smo (dSmo): N213Q,N336Q (protein)
parent chain: B1 parent chain
B3: Drosophila Smo (dSmo): N213Q (protein)
parent chain: B1 parent chain
B4: Drosophila Smo (dSmo): dSmoNQ5 (protein)
parent chain: B1 parent chain
B5: Drosophila Smo (dSmo): N95Q,N336Q (protein)
parent chain: B1 parent chain
B6: Drosophila Smo (dSmo): N195Q (protein)
parent chain: B1 parent chain
B7: Drosophila Smo (dSmo): N184Q,N336Q (protein)
parent chain: B1 parent chain
B8: Drosophila Smo (dSmo): N95Q (protein)
parent chain: B1 parent chain
B9: Drosophila Smo (dSmo): N184Q (protein)
parent chain: B1 parent chain
B10: Drosophila Smo (dSmo): N195Q,N336Q (protein)
parent chain: B1 parent chain
B11: Drosophila Smo (dSmo): dSmoN336Q (protein)
parent chain: B1 parent chain
B12: Drosophila Smo (dSmo): dSmoN213Q,N336Q (protein)
parent chain: B1 parent chain

These results are taken from paper PMC4546403.

One data set can be described thus: EndoH-resistant post-ER vs EndoH-sensitive ER fraction, western. Conditions: glycan lost; control: wild type dSmo.
For B1, the localisation_or_trafficking result was “decreases”.

B2: the localisation_or_trafficking entry was “decreases”.

On to B3, for which the localisation_or_trafficking result is listed as “no change”.

The next data set in a line: immunofluorescence, Hh-induced plasma membrane vs ER marker, Cl8. As to conditions: glycan lost; control: wild type dSmo.
For the protein B4, the localisation_or_trafficking entry is recorded as “abolishes”.

As to B5, the localisation_or_trafficking result is “decreases”.

As to B6, the localisation_or_trafficking result is given as “no change”.

Take B7: the localisation_or_trafficking entry was “decreases”.

With B1, the localisation_or_trafficking result is listed as “abolishes”.

B2: the localisation_or_trafficking result was “decreases”.

With B8, the localisation_or_trafficking entry is “no change”.

As to B9, the localisation_or_trafficking entry is “no change”.

For B10, the localisation_or_trafficking entry is listed as “decreases”.

Regarding B3, the localisation_or_trafficking result is “no change”.

The nature of a further data set: biotin-maleimide free-thiol labelling, NeutrAvidin capture (disulfide integrity). Conditions: glycan lost; control: wild type dSmo.
B1: the stability_or_folding entry is on record as “decreases”.

For the protein B2, the stability_or_folding result is “decreases”.

Another data set can be described thus: cycloheximide chase, Cl8 cells, densitometry. As to conditions: glycan lost; control: wild type dSmo.
Consider B4, for which the “degradation_or_half_life, half_life” value is on record as “increases, ~4 vs ~1”.

The nature of another data set: western blot of Cl8 cell lysates. As to conditions: glycan lost; control: wild type dSmo. (A western blot detects proteins with antibodies after separation by electrophoresis.)
Consider B4, for which the expression_or_secretion result was “increases”.

Regarding B11, the expression_or_secretion result was “increases”.

The next data set is described as follows: western blot of wing imaginal disc lysates. Conditions: glycan lost; control: wild type dSmo transgene.
Regarding B4, the expression_or_secretion result is reported as “no change”.

Turning to B12, the expression_or_secretion result was “increases”.
